Measured values: publication PMC2363545

Target: IGF-II (insulin-like growth factor-II)
Assay: SPR; BIAcore; who was immobilised, buffer, pH and temperature not stated (abstract P25)

| Kd | koff | kon | Substance |
| --- | --- | --- | --- |
| 153 nM | 0.0138 s⁻¹ | 90000 M⁻¹ s⁻¹ | IGF2R domain 11 (domain or fragment) |
| 49.3 nM | 0.00808 s⁻¹ | 164000 M⁻¹ s⁻¹ | IGF2R domains 10-13 (domain or fragment) |
| 134 nM | 0.0082 s⁻¹ | 61300 M⁻¹ s⁻¹ | IGF2R domains 11-12 (domain or fragment) |
| 42.6 nM | 0.00426 s⁻¹ | 100000 M⁻¹ s⁻¹ | IGF2R domains 11-13 (domain or fragment) |
| 346 nM | 0.0086 s⁻¹ | 24800 M⁻¹ s⁻¹ | IGF2R domains 10-12 (domain or fragment) |
| 9.55 nM | 0.0113 s⁻¹ | 1.18e+06 M⁻¹ s⁻¹ | sIGF2R (domains 1-15), soluble insulin-like growth factor 2 receptor (from UniProt P11717 41-2304) |
